Where two headings read alike, the source gives them in different places.
T1: human GARP protein not in any GARP/TGFβ1 complex (protein used in ELISA and Octet) (human, UniProt Q14392 20-627, limits assumed)
T1 construct: Coated on plates at 2 µg/ml in the ELISA; also called hGARP; human GARP alone
T1 sequence (looked up): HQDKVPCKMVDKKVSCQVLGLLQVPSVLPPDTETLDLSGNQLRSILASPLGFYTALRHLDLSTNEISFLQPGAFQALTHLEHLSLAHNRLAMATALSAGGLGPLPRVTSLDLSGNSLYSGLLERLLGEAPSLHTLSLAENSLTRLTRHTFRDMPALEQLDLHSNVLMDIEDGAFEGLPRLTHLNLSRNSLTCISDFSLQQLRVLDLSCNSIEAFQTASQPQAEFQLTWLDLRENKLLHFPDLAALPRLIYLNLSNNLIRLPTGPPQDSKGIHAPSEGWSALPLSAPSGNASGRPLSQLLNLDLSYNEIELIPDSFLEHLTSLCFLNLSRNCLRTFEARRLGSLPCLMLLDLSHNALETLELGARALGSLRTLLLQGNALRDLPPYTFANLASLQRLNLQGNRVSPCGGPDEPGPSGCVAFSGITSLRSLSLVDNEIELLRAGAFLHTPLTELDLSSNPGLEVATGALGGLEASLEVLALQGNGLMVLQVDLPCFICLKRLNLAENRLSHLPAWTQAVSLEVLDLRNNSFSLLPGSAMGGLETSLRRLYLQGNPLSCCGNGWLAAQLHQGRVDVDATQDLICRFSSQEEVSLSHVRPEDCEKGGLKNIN


Tests used:
[1] = target: T2, human GARP/latent TGFβ1 complex on cells (human, UniProt Q14392 20-662; P01137 30-390); test: flow cytometry on human GARP/latent TGFβ1 transfected CHO-S cells, goat anti-human IgG(H+L) FITC
T2 construct: whole, on cells; also called human GARP/TGFβ1 complex; human GARP/TGFβ complex

[2] = target: T2, human GARP/latent TGFβ1 complex on cells; test: as above; remark: listed apart in the source
[3] = target: T3, mouse GARP/latent TGFβ1 complex on transfected CHO-S cells (mouse); test: flow cytometry on mouse GARP/latent TGFβ1 transfected CHO-S cells, goat anti-human IgG(H+L) FITC
T3 construct: also called mouse GARP/TGFβ1 complex; mouse GARP/TGFβ complex

[4] = target: T4, human GARP/TGFβ1 complex (protein used in ELISA and Octet) (human, UniProt Q14392 20-627; P01137 30-390, limits assumed); test: Octet
T4 construct: Coated on plates at 4 µg/ml in the ELISA; also called hGARP/TGFβ1; human GARP/latent TGFβ1 complex

[5] = target: T1, human GARP protein not in any …; test: Octet

EC50 (read off the curve) [1] [µg/mL] | EC50 (read off the curve) [2] [µg/mL] | EC50 (read off the curve) [3] [µg/mL] | Kd [4] [nM] | Kd [5] [nM] | Binder
~1 |  |  |  |  | Clone GA1#7 (antibody, V domains shown) VH: QVQLVQSGGGVVQPGRSLRLSCAASGFTFSSYAMHQVRQAPGKGLEWVAVISYDGSQKYYADSVKGRFTISRDNSKNTLYLQMNSLRAEDTAVYYCARDALRTYYYYGMDVWGQGTTVTVSS VL: SYELTQPPSVSVSPGQTARITCSGDALPDRYTYWYQQKPGQAPVLVIYSDNERPSGIPERFSGSSSGTTATLTINGVQAEDEADYYCQSSDDTYTFGGGTKLTVL
~1 | ~0.6 | ~0.2 |  |  | Clone GA1 (antibody, V domains shown) VH: QVQLVQSGGGVVQPGRSLRLSCAASGFTFSSYAMHQVRQAPGKGLEWVAVISYDGSNKYYADSVKGRFTISRDNSKNTLYLQMNSLRAEDTAVYYCARDVLRTYYYYGMDVWGQGTTVTVSS VL: SYELTQPPSVSVFPGQTARITCSGDALPDRYTYWYQQKPGQAPVLVIYSDNERPSGIPERFSGSSSGTIATLTINGVQAEDEADYYCQSADDTYTFGGGTKLTVL
~1 |  |  | 0.281 |  | Clone GA1#8 (antibody, V domains shown) VH: QVQLVQSGGGVVQPGRSLRLSCAASGFTFSSYAMHQVRQAPGKGLEWVASISYDGSNKYYADSVKGRFTISRDNSKNTLYLQMNSLRAEDTAVYYCARDALRTYYYQGMDVWGQGTTVTVSS VL: SYELTQPPSVSVSPGQTARITCSGDALPDRYTYWYQQKPGQAPVLVIYSDNERPRGIPERFSGSSSGTTATLTINGVQAEDEADYYCQSADYTYTFGGGTKLTVL
 |  |  | 0.696 | 0.429 | Clone hGA17 (antibody, human IgG1, kappa, V domains shown, Humanized form of mouse clone GA17; kappa light chain) VH: QVQLVQSGAEVKKPGASVKVSCKASGFNIKDTYFHWVRQAPGQGLEWMGRIDPTNGNGRYAQKFQGRVTMTRDTSTSTVYMELSSLRSEDTAVYYCATSTGTGYFALVYWGQGTTVTVSS VL: DIQLTQSPSFLSASVGDRVTITCKASQNVGSAVAWYQQKPGKAPKLLIYWSSTRHTGVPSRFSGSGSGTEFTLTISSLQPEDFATYYCQQYSNYPLTFGGGTKLEIKR

Reference: patent US20230340098A1 (SHANGHAI HENLIUS BIOTECH, published 2023)
